Results published in the DeepSol protein solubility set.

test: soluble on expression in E. coli; label from the status in PepcDB or PDB records

Row | Sequence | soluble on expression in E. coli
1 | MKPMSDYDIPTTENLYFQGAMVTTPGKPNDPDNPNNNYIKPTKVNKNKEGLNIDGKEVLAGSTNYYELTWDLDQYKGDKSSKEAIQNGFYYVDDYPEEALDVRPDLVKVADEKGNQVSGVSVQQYDSLEAAPKKVQDLLKKANITVKGAFQLFSADNPEEFYKQYVATGTSLVITDPMTVKSEFGKTGGKYENKAYQIDFGNGYATEVVVNNVPKITPKKDVTVSLDPTSENLDGQTVQLYQTFNYRLIGGLIPQNHSEELEDYSFVDDYDQAGDQYTGNYKTFSSLNLTMKDGSVIKAGTDLTSQTTAETDATNGIVTVRFKEDFLQKISLDSPFQAETYLQMRRIAIGTFENTYVNTVNKVAYASNTVRTTT | soluble
2 | MKPNLLPMNLQMFAEEDGGTNFTFDDFKAFVESNEEAQKFVQSQSQSAADKQLEAWKQNNLEKIKETTIKEYEESKKNKTPEQIKLEELQAEFEAEKALRVTSDNKAFVAEKIAGLDWDGDLKDSISQFMLNNLVSSDTEFTKKAVEGFTELLEAINDKHAEAIKNVEMTKAFGNKSQQTNMGTGNQTKSFENPEVALGQKLQAFID | not soluble
3 | MKPVQLTVDNIAKAIFTVNRHAKTALNPSFLYLLKKKAIEKLLEEGKAKKVGLHFSRNPKYSQQQSDVLVAVGDYYFHIPPTKQDFAALPHLGSLNDSYRNPPARMPLSEAKAILIAYTGLREKPEQKPKRLTRPVFKRLGDRY | not soluble
4 | MKQFVVISGKGGTGKTSVTAGLAAVGKDMVLADCDVDAADLHLVLAPEIRERHDFISGVVASIEPEACISCGLCTTHCRYGAIPQGYAPQVAPEHCEGCGVCAHVCPTGAARLSDRRCGEWYVSDTRFGPMVHAALGIGEENSGKLVSTVRTRARELAEARDASVVLIDGSPGVGCPVIASLAGADAALAVTEPTVSALHDLERVHALARHFDVRMAVLLNKADIHPGMAERIIGYCTTHDLPLVGRFGFSPLFVQAQLEGRTLPEQDSGEWRQRFNGVWNQLLALVLEHHHHHH | not soluble
5 | MKQTNPFVYSNDNKRYHTWNYCLREEFGQKTYKVALDGGFDCPNRDGTVAHGGCTFCSAAGSGDFAGNRALDLKVQFQQVRDKMQTKWKDGKCIAYFQAFTNTHAPVAELREKFETVLNEPGVVGLSIATRPDCLPDDVVEYLAELNERTYLWLELGLQSAHDETGRLINRAHDYDCYLEGVRKLQKHNIRICTHIINGLPKETPEMMMETAQKVVESGVDGIKIHLLHLLKGTPMVEDYKKGDLEFLTRDGYVNLVADQLEILPPEMVIHRITGDGGVDDLIGPVWSLNKFEVLNAIDAELVRRDSWQGKLYQPVEVSSK | not soluble
6 | MKRAPFLCKQSPDRTLEVVILAGSLAWETSRVWRKDPDREDDVPPMVLGPNELADLSNLTIIRPDTLYVRVLRTGDISEEDLLKIAVKLAHAGVQMARLMSPDGELLENWTGQLERLRQERPSDILPDHFRLDEEALWFDKLTERRDGESDVQPQRICSPLRVTAITCDSHDGSYGRLLEWHTTTGQLRRWAMPMAMLSGNGEELRRILLENGLTNISTRPALRSLLCEYISRSLPGRRVTCVEKTGWHNGVYVLPDEVIGPDGDNVILQGSHYLTGGFAQAGTLAEWQEQVAALCAGNSRLVFAVCCALAAPLLRLTGTGGGGFHLRGESTDGKTTVMKVAASVCGGTDYWHSWRATGNALEGIASRHNDALLPLDELREVDPREAGMIAYMLANGQGKGRARTDGEVRNRRHWTLLLEHHHHHH | not soluble
7 | MKRGYVLHHRPYRESSALVNLLVDGIGRVDAVARVGSGKRSIKSILQPFQPLIFEFSGKSELKNISQIEAAAPAVPLSGYSLYAGMYINELLMRTLSVQHNAEALFFIYHQALVGLAAQFCESKLRYLELALLRELGAMPSLIRDTQGEPLIPEHCYQLVPELGFQFVLNSRAKHTYQGAMLTALNDNQLLQEQFLEAKRLMRSMLQPLLGNKPLVSRQLFIQAAASKVDGNN | not soluble
8 | MKRHFRPSLIKTEAWEGYEFADKEIKITESTDCYGAVLWPSAMVLCHFLDSHRDQYNLLDKKIIELGAGTGLVTIVTSLLGAQVTSTDLPDVLANLRHNVNRNTRGRCRHEPQVTELIWGQQLEERFPRYTCQYDYILAADVVYGHPYLQELLETFIHLCSDHTVILWAMRFRLDPENRFVHTFQEHFHLEELYDLPSLSIKLYRAHKR | not soluble
9 | MKRHIAMAAGALALALGAQAAHAGPTLDAVKKKGFVQCGLTDGVAGFSATNSKGEWEGMDVDICRAVAAAVFGDAGKFKGTALSTQQRFTALQSGEVDVLLRTVTLTQTRDTSLGLAAVAASFYDGQGVLVRKALGVKSAKELDEATICVQPGTTTELNLADWFRANGIKFTPVVIDKVTEVVRAFESGRCDAFTDDASQLAAVRATQVAKPDDFEILPERFSKEPLGPMVRQGDENWLGIVRWTLFALMEAEEYGITQQNVDEMLKSKNPNVLRILGVTPGAGKNMGLDEKWAYNAIKAVGNYSQIFERNVGKDSRLGLQRGVNALWSQGGAMYPWPIR | not soluble
10 | MKRIGVVLGRREATPLEFWVGVEGDGLLRLDDLVVVEGFHPQVGQVRFFGMVDHVAKVHEGESFDTDTFLAVEGKIPVSLAYVAHVSVTRILPEEFFPPDPGSPVYLAQEEDLELALYYDAMRNQRGSTKLPAGLLKNGEVAYLNLEFLNGVKGGHVNISGISGVAAKTSYATFLLKSLLESGVLEDAHQARVLLFNVKGEDLFFLDKPNARLTEEARKAYARLGLPATPFQSVAFLAPPKKAGYLPDVDTRLEGVEAYHWDLVQFCQRGLLPFLFADRAAMTNLGFLVAHVTEKLKRLAEGQKGPHLQVEDWPGGEASEGMSFDQLGKARLKSFSDLVRYLEYKLLGPETGEGEGDRGWTARQAKGTLEAFVRRLRSSVENVAHLVRGDRPGSPPDPLSGKAQVHVVDLAKLSPQAQMFVVGSLLKDLFERKERGQYRGRVFIVLDELNKYAPREEESPIKDVLLDIAERGRSLGVILIGAQQTASEVERRVVGNAAIRVVGRLDAAEAERPEYRYLPTSFRQRALILPQGAVILHQPEIPVPLLVHFPFPAWATKREEVLEDNSAEALRREFFR | soluble
11 | MKRLADVKISTLDLVPVRHDKGPADSLRNSLNLAQHVEKLGYNRFWVAEHHNMDGIASSATSVLLAYLAGGTSTIRVGAGGIMLPNHAPLVVAEQFGTLASLYPGRIDLGLGRAPGSDQMTARALRRERSGSAEDFPDDVTELMEYLGPRTPDQKVIAVPGSDTNVPIWLLGSSLFSAQLAGMRGLPYAFASHFAPRYMHEAIRVYRNHFQPSAVLDKPYVMLGVPLSAADTDEHAEYLATSVYQRILALMRGHSLMQRPPVESMDGLWLPHEREAVASFLGLAMVGGPDKIRAKLDVLLEQTDADELIFTCDMYEHEDRLRSYEILAQVAQG | not soluble
12 | MKRLLLLGGIGEALALARRLGPAHLYSLAGLGKVPGDLACRVRVGGYGGAEGLAAFIDEQGFDLLVDATHPYAARISQNAVRAARLAGVPCWALRRPGWQAGPGDDWREVADWRELIAALTPFRRPLFTLGREPLEHLGQVPPHQHWTVRCLQGQPAAPRAEVIGARGPFSLDGERALFERLACDVLVSKNSGSQATEPKLQVAREMGLPVLVLARPALPPADREFADGEALLTAIRDWESA | not soluble
13 | MKRLRNKMTTEELAECLGVAKQTVNRWIREKGWKTEKFPGVKGGRARLILVDTQVCEFIQNTPAFHNTPMLMEAEERIAEYAPGARAPAYRQIINAIDNMTDIEQEKVAQFLSREGIRNFLARLDIDESA | not soluble
14 | MKRLRSKMTTEELAECLGVARQTVNRWIREQHWKTEKFPGVKGGRARLIHIDASVREFILNIPAFRKLPAFYQAEEAFAEYANAAHSHAYRQIIDAVENMSAQEQEKLALFLSREGIRGFLTRLGINEAD | not soluble
15 | MKRQRLVDKEWILQFPIEYFIHKEVHELNSTQAQRLVSLFKNGCETAYIARYRGDVHGYLAPEKIRKAMEAYVDAKNLNNKVSSAISTVTAKVAGAQEKIIVTERFKRCEEFDEVTDISKEYSTGTRKTKANIARALGLEPPAQSILDGNFVDFKSLLSNGLKTVKDVEEHLKICLADLINRDEEVRKVSANIDILKKECRVSAKLSREAEKNRKDLEKRGIIEKYKNFIGEKWNAEDIRDHTVSALNKGFDEGIITWKIECEFNDAKYIHPFSRKSVYFGMKNFYQEALAYSIKNYFIPRIERKMANHLKDKAKDRSIVLFGENVDQLLSQEGIRDKFVIALDPGRSKIKTAFLKPTGEVVDMSSFSIYGTRFDGGGVDLLKKWSQQTERKDIVFAIGNGTNTYNTQIAVSDMINSNVFPKEINVSYCIVPEHGASKYSCTPSAIEEFGENAEITEISAVSIGRRLIDPMSEYVKIEPQHLGKGQYQLSVDPKKLNESLLNVVRDRVSFNGVDLNTASKNLLQRINGLNEKTAKEIVQYREQNGRFRSRAELKEVKGIGALTFQQCAGFLTVSRPDDAEDGPPKKKFKKSSTSKEWNPFDETIVHPDDYRTGESLLGKLNVSIEDITGRIKSFSISRLTAEEAKVLNLLQNLTLKTKMKPPPPLRTKVGQIRDLAEGQRFTGTVSNKTDFGVFIDIGVGQDGLAHISHFKDGHYSLMLPSVNDSVEVVIDKIREDGKISLSPVY | not soluble
16 | MKRRCVFMRLSLLDYVPLFEGRTPNDALKHSIKLAQHAEKLGYLRYWVAEHHQVYSVVSSAPEIIMMSILEHTQHIRVGSGGVMLPHYSPYKVAEQFKIMEARHPQRIDMAIGRSPSFKNVNAALNENKNEKLPFNTQITDLLKYFNNDTTQDHRFKSLLATPMVTSFPQLYILGMSNRSAKLAAQRGLPFVIARMGQSETDLHEAISTYRKYFKAYHGEINNAKPYVILATFVVTASNLSRVKQLLHTLQLWLMRINYLNQPKSYPSIETAQNKHYSQRELEKLEKMKSKIIYGMPNDVAEQLTLLHQQFKVDEIIILPHVFGEDARMELIELIANELIPSCSRDEF | not soluble
17 | MKRRDILKGGLAAGALALLPRGHTQGALQNQPSLGRRYRNLIVFVYDGFSWEDYAIAQAYARRRQGRVLALERLLARYPNGLINTYSLTSYVTESSAAGNAFSCGVKTVNGGLAIHADGTPLKPFFAAAKEAGKAVGLVTTTTVTHATPASFVISNPDRNAEERIAEQYLEFGAEVYLGGGDRFFNPARRKDGKDLYAAFAAKGYGVVRTPEELVRSNATRLLGVFADGHVPYEIDRRFQGLGVPSLKEMVQAALPRLAAHRGGFVLQVEAGRIDHANHLNDAGATLWDVLAADEVLELLTAFVDRNPDTLLIVVSDHATGVGGLYGAGRSYLESSQGVDLLEPQRASFEHMLRVLGQAPEASQVKEAFRAMKGVDLEDAEAERVVRAIREKVYWPEGVRQGVQPANTMAWAMVQRDAQKPDRPNIGWSSGQHTASPVMLLLYGQGLRFVNLGLVDNTHVFRLMGEALGLRYQNPVMSEEEALEILKARPQGMRHPEDVWA | soluble
18 | MKRRLDDQESPVYAAQQRRIPGSTEAFPHQHRVLAPAPPVYEAVSETMQSATGIQYSVTPSYQVSAMPQSSGSHGPAIAAVHSSHHHPTAVQPHGGQVVQSHAHPAPPVAPVQGQQQFQRLKVVFSSFSWVKKFIFSRKYWLQLVGCGGTTSNLRY | not soluble
19 | MKRSEKKSMSSALKNGIMERTQPEKVVQMQGTADLSTSKLGTKKYWDELYALELENFRRNPQDTGDCWFSDSDAEQKMIDFLVDNIGAYRISENASVVDLGTGNGHMLFELHQTEFQGKLVGIDYSEESVKLASNIAEATGVDNFISFQQADIFSGDWKPGKYDIVLDKGTLDAISLSGMKINGKLDVVDVYAGVVERILKKDGIFLITSCNFTQDELVKIIETDNLKMWKTIKYPVFQFGGVQGATICSVAFVKQN | soluble
